# Test results: patent US20240150440A1 (LUMEN BIOSCIENCE, published 2024)
# Read-outs that look alike come from different tables or passages of the source.
# B1: PP1110 MBP-5HVZ-PAPA-RN-26-H6 (VHH)
# VHH: QVQLVESGGGLVQPGGSLRLSCAASGSISSINSMHWYRQAPGKEREWVAAVSSYGSDYYADSVKGRFTISRDNAKNTVYLQMNSLKPEDTAVYYCAARTVTGFTYGDYWGQGTQVTVSS
# notes: Form: Dimer
# B2: PP1154 MBP-5HVZ-PAPA-R5d-G1-H6 (VHH)
# VHH: QVQLVESGGGLVQPGGSLRLSCAASGSIFGINDVHWFRQAPGKEREFVATITNGLSARYKDSVKGRFTISRDNAKNTVYLQMNSLKPEDTAVYYCAAQVYITTYELYDYWGQGTQVTVSS
# notes: Form: Dimer
# B3: MBP-R5A-A5-H6 (VHH, not shown: large carriers; small tags and cut ends)
# VHH: QVQLVESGGGLVQPGGSLRLSCAASGSAFATNGLHWFRQAPGKQREFVAGITSNGSINYKDSVKGRFTISRDNAKNTVYLQMNSLKPEDTAVYYCTALLMSYGGGEEYDYWGQGTQVTVSS
# B4: MBP-5HVZ-R5A-A5-H6 (VHH, not shown: large carriers; small tags and cut ends)
# VHH: QVQLVESGGGLVQPGGSLRLSCAASGSAFATNGLHWFRQAPGKQREFVAGITSNGSINYKDSVKGRFTISRDNAKNTVYLQMNSLKPEDTAVYYCTALLMSYGGGEEYDYWGQGTQVTVSS
# B5: PP1106 MBP-5HVZ-PAPA-RN-21-H6 (VHH)
# VHH: QVQLVESGGGLVQPGGSLRLSCAASGLQTSDNAMHWFRQAPGKNRELVAGLTSGTSRNYGDSVKGRFTISRDNAKNTVYLQMNSLKPEDTAVYYCAAFPDVGDASSIGFVYWGQGTQVTVSS
# notes: Form: Dimer
# B6: PP1102 MBP-5HVZ-PAPA-RN-17-H6 (VHH)
# VHH: QVQLVESGGGLVQPGGSLRLSCAASGSMYSRAVMHWFRQAPGKEREGVASIGRTGDSYYADSVKGRFTISRDNAKNTVYLQMNSLKPEDTAVYYCAADNLDVVYGNRYWGQGTQVTVSS
# notes: Form: Dimer
# B7: MBP-5HVZ-R5A-B3-H6 (VHH, not shown: large carriers; small tags and cut ends)
# VHH: QVQLVESGGGLVQPGGSLRLSCAASGQLDRSNAMAWFRQAPGKGREWVASITSGASTQYADSVKGRFTISRDNAKNTVYLQMNSLKPEDTAVYYCAADRYRAIQRTQYSWGQGTQVTVSS
# B8: R5A-C5 (competition ELISA sample) (VHH)
# VHH: QVQLVESGGGLVQPGGSLRLSCAASGDIFSINALHWFRQAPGKQREEVAAITSGGSTGYADSVKGRFTISRDNAKNTVYLQMNSLKPEDTAVYYCAAQQARGGLDSDYWGQGTQVTVSS
# B9: MBP-5HVZ-R5A-D4-H6 (VHH, not shown: large carriers; small tags and cut ends)
# VHH: QVQLVESGGGLVQPGGSLRLSCAASGSAMMINRTHWFRQAPGKEREGVAGITWQGSTYYADSVKGRFTISRDNAKNTVYLQMNSLKPEDTAVYYCNAVAPVHENENYWGQGTQVTVSS
# B10: PP1109 MBP-5HVZ-PAPA-RN-25-H6 (VHH)
# VHH: QVQLVESGGGLVQPGGSLRLSCAASGEDYSYNAAHWFRQAPGKEREWVAAINSGGGTYYADSVKGRFTISRDNAKNTVYLQMNSLKPEDTAVYYCAYLGALDRDGYDAWGQGTQVTVSS
# notes: Form: Dimer
# B11: PP1099 MBP-5HVZ-PAPA-RN-12-H6 (VHH)
# VHH: QVQLVESGGGLVQPGGSLRLSCAASGSSFEGNAVHWFRQAPGKNREFVATITTSTSYYYADSVKGRFTISRDNAKNTVYLQMNSLKPEDTAVYYCAARLKDRGPQSEYDYWGQGTQVTVSS
# notes: Form: Dimer
# B12: PP1153 MBP-5HVZ-PAPA-R5d-D4-H6 (VHH)
# VHH: QVQLVESGGGLVQPGGSLRLSCAASGSDFTINAMHWFRQAPGKQREFVATITSTSSTAYRDSVKGRFTISRDNAKNTVYLQMNSLKPEDTAVYYCAAFAVRDADTAGWTARDYWGQGTQVTVSS
# notes: Form: Dimer
# B13: PP1108 MBP-5HVZ-PAPA-RN-23-H6 (VHH)
# VHH: QVQLVESGGGLVQPGGSLRLSCAASGGEKSISAAHWYRQAPGKEREFVAAITAASTTSYADSVKGRFTISRDNAKNTVYLQMNSLKPEDTAVYYCTAVLYDSYDYWGQGTQVTVSS
# notes: Form: Dimer
# B14: PP930 MBP-5HVZ-R2b-D4-H6 (VHH)
# VHH: QVQLVESGGGLVQPGGSLRLSCAASGSYASIASMHWFRQAPGKQREFVAGLTSGGSRIYGDSVKGRFTISRDNAKNTVYLQMNSLKPEDTAVYYCTALILHYAGMYDYWGQGTQVTVSS
# notes: Form: Dimer
# B15: PP1104 MBP-5HVZ-PAPA-RN-19-H6 (VHH)
# VHH: QVQLVESGGGLVQPGGSLRLSCAASGIDDSIGAMHWFRQAPGKGREFVAALSGTGTTSYADSVKGRFTISRDNAKNTVYLQMNSLKPEDTAVYYCAAAFPAGGDYWGQGTQVTVSS
# notes: Form: Dimer
# B16: MBP-5HVZ-R5A-A1-H6 (VHH, not shown: large carriers; small tags and cut ends)
# VHH: QVQLVESGGGLVQPGGSLRLSCAASGAELSYTAIHWFRQAPGKQREFVATINSGGSSYYADSVKGRFTISRDNAKNTVYLQMNSLKPEDTAVYYCTALLDSTYDYWGQGTQVTVSS
# B17: PP1103 MBP-5HVZ-PAPA-RN-18-H6 (VHH)
# VHH: QVQLVESGGGLVQPGGSLRLSCAASGYYFQIVAMHWYRQAPGKEREGVAGITSTGSTYYGDSVKGRFTISRDNAKNTVYLQMNSLKPEDTAVYYCNAVSTDAQGAAEYWGQGTQVTVSS
# notes: Form: Dimer
# B18: MBP-5HVZ-R5A-D6-H6 (VHH, not shown: large carriers; small tags and cut ends)
# VHH: QVQLVESGGGLVQPGGSLRLSCAASGNDWYINSAHWYRQAPGKEREFVASVSRGGSNNYRDSVKGRFTISRDNAKNTVYLQMNSLKPEDTAVYYCAALLETSSGDYTYWGQGTQVTVSS
# B19: PP1101 MBP-5HVZ-PAPA-RN-16-H6 (VHH)
# VHH: QVQLVESGGGLVQPGGSLRLSCAASGADFSSNAMHWFRQAPGKAREFVASIDSDKSGYYADSVKGRFTISRDNAKNTVYLQMNSLKPEDTAVYYCNAYSGTDNYGYDYWGQGTQVTVSS
# notes: Form: Dimer
# B20: PP912 MBP-5HVZ-S2b-G8-H6 (VHH)
# VHH: QVQLVESGGGLVQPGGSLRLSCAASGSIQSYEAMHWFRQAPGKAREWVAVITWGDSTQYGDSVKGRFTISRDNAKNTVYLQMNSLKPEDTAVYYCAADVRQGYSSWGQGTQVTVSS
# notes: Form: Dimer
# B21: MBP-5HVZ-R2E-F4-H6 (VHH, not shown: large carriers; small tags and cut ends)
# VHH: QVQLVESGGGLVQPGGSLRLSCAASGETFSSNAMHWFRQAPGKGREFVAAITSGGNDNYSDSVKGRFTISRDNAKNTVYLQMNSLKPEDTAVYYCNAPATEDTSHYPRNYWGQGTQVTVSS
# B22: PP1105 MBP-5HVZ-PAPA-RN-20-H6 (VHH)
# VHH: QVQLVESGGGLVQPGGSLRLSCAASGNYFEINKMHWFRQAPGKQREFVATIGSGGSTAYADSVKGRFTISRDNAKNTVYLQMNSLKPEDTAVYYCNALIYLADRRDGYYSYDYWGQGTQVTVSS
# notes: Form: Dimer
# B23: PP1107 MBP-5HVZ-PAPA-RN-22-H6 (VHH)
# VHH: QVQLVESGGGLVQPGGSLRLSCAASGSISEINLLHWFRQAPGKQREWVATMTSGGSTDYADSVKGRFTISRDNAKNTVYLQMNSLKPEDTAVYYCAADEFTKYGHGRYWGQGTQVTVSS
# notes: Form: Dimer
# Tests used:
# [1] = molecular target: SARS-COV-2 Wuhan Reference RBD (SARS-CoV-2, UniProt P0DTC2 319-541); test: ELISA, RBD coated
# [2] = molecular target: T1, recombinant SARS-CoV-2 RBD with C-terminal AviTag (SARS-CoV-2, UniProt P0DTC2 319-541); test: ELISA, competition with coated ACE2-Fc for RBD [Cont. 9]
# [3] = molecular target: T1, recombinant SARS-CoV-2 RBD with …
Binder,EC50 [1],IC50 [2],Kd [3],IC50 [3]
B1,3.5 nM,156 nM,–,–
B2,2.42 nM,–,–,–
B3,–,–,~920 nM,–
B4,–,–,24.7 nM,4.4 nM
B5,2.52 nM,9.7 nM,–,–
B6,0.97 nM,2.4 nM,–,–
B7,–,–,~1200 nM,35.9 nM
B8,–,–,7.04 nM,1.4 nM
B9,–,–,21.1 nM,5.7 nM
B10,1.06 nM,29.6 nM,–,–
B11,4.24 nM,–,–,–
B12,1.23 nM,–,–,–
B13,2.61 nM,380 nM,–,–
B14,3.18 nM,–,–,–
B15,1.21 nM,3.5 nM,–,–
B16,–,–,29 nM,3.4 nM
B17,2.4 nM,53.3 nM,–,–
B18,–,–,35 nM,223 nM
B19,1.56 nM,13.9 nM,–,–
B20,2.33 nM,–,–,–
B21,–,–,11.4 nM,6.3 nM
B22,1.24 nM,7.2 nM,–,–
B23,0.27 nM,3.9 nM,–,–
